Results reported in article PMC9456320.

Legend:
[1] = biological target: C-terminally mKGC-tagged ORF30 (ORF30-mKGC) (Kaposi's sarcoma-associated herpesvirus (KSHV; BAC16, strain JSC-1)); assay: split reporter (BiFC, NanoBiT); split mKusabira-Green (mKGN/mKGC) BiFC in 293T cells, co-transfected by the calcium phosphate method, all combinations of tag type and location; cells fixed two days after transfection, gated by FSC/SSC, ratio of mKG-positive cells by flow cytometry
[2] = biological target: C-terminally mKGC-tagged ORF30 (ORF30-mKGC); assay: BiFC assay, flow cytometry; conditions: 293T cells, co-transfected with mCherry transfection control, three independent samples
p50-mKGC (pCONT-2) = p50-mKGC (pCONT-2) (UniProt P19838); assay: split reporter (BiFC, NanoBiT); split mKusabira-Green BiFC in 293T cells, lipofection of mKGN-ORF18 alanine-scanning mutants with ORF30-mKGC and mCherry as transfection control; mCherry-positive cells gated, % mKG-positive cells by flow cytometry; block mutants under 20% and single mutants under 60% counted as binding-negative
UniProt P19838, sequence (P19838 1-433): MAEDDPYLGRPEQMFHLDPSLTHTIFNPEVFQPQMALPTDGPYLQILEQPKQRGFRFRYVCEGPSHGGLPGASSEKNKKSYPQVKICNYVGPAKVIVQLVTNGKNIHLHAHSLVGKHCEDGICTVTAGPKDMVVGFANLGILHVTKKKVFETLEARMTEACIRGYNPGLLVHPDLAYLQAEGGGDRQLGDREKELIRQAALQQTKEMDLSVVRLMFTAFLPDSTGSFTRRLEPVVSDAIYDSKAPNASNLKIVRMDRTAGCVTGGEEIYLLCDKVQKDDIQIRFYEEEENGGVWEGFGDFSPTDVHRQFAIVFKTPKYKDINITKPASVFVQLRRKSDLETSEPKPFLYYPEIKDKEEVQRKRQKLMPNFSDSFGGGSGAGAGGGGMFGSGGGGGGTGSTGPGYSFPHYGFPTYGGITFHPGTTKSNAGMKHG

Row | Substance | response ([2]; parent: 99.9) | response ([2]; parent: 99.8) | also measured
1 | N-terminally mKGN-tagged ORF18 (mKGN-ORF18) WT (natural protein) |  |  | mKG-positive cells (%) [1]: 70%
2 | N-terminally mKGN-tagged ORF18 (mKGN-ORF18) WT C166A | 99.6% |  | 
3 | N-terminally mKGN-tagged ORF18 (mKGN-ORF18) WT C166A; L167A; W170A; G171A |  | 14.2% | 
4 | N-terminally mKGN-tagged ORF18 (mKGN-ORF18) WT E36A | 55.9% |  | 
5 | N-terminally mKGN-tagged ORF18 (mKGN-ORF18) WT E36A; L37A; R38A |  | 9.76% | 
6 | N-terminally mKGN-tagged ORF18 (mKGN-ORF18) WT E176A; V179A; R180A |  | 75.3% | 
7 | N-terminally mKGN-tagged ORF18 (mKGN-ORF18) WT F187A; L191A |  | 32.7% | 
8 | N-terminally mKGN-tagged ORF18 (mKGN-ORF18) WT G3A |  | 99.8% | 
9 | N-terminally mKGN-tagged ORF18 (mKGN-ORF18) WT G15A | 99.6% |  | 
10 | N-terminally mKGN-tagged ORF18 (mKGN-ORF18) WT G171A | 98.6% |  | 
11 | N-terminally mKGN-tagged ORF18 (mKGN-ORF18) WT G195A; L197A |  | 87.5% | 
12 | N-terminally mKGN-tagged ORF18 (mKGN-ORF18) WT H41A | 47.4% |  | 
13 | N-terminally mKGN-tagged ORF18 (mKGN-ORF18) WT H41A; L44A |  | 16.2% | 
14 | N-terminally mKGN-tagged ORF18 (mKGN-ORF18) WT L19A | 99.1% |  | 
15 | N-terminally mKGN-tagged ORF18 (mKGN-ORF18) WT L24A | 93.4% |  | 
16 | N-terminally mKGN-tagged ORF18 (mKGN-ORF18) WT L24A; L29A |  | 16.7% | 

Row | Substance | response ([2]; parent: 99.9) | response ([2]; parent: 99.8) | also measured
17 | N-terminally mKGN-tagged ORF18 (mKGN-ORF18) WT L29A | 58.8% |  | 
18 | N-terminally mKGN-tagged ORF18 (mKGN-ORF18) WT L37A | 98.7% |  | 
19 | N-terminally mKGN-tagged ORF18 (mKGN-ORF18) WT L44A | 94.7% |  | 
20 | N-terminally mKGN-tagged ORF18 (mKGN-ORF18) WT L142A; D144A; G145A; N146A |  | 81.3% | 
21 | N-terminally mKGN-tagged ORF18 (mKGN-ORF18) WT L151A; G152A; S153A |  | 72.6% | 
22 | N-terminally mKGN-tagged ORF18 (mKGN-ORF18) WT L159A | 99.9% |  | 
23 | N-terminally mKGN-tagged ORF18 (mKGN-ORF18) WT L167A | 96.6% |  | 
24 | N-terminally mKGN-tagged ORF18 (mKGN-ORF18) WT N53A; Y55A; L56A |  | 39.9% | 
25 | N-terminally mKGN-tagged ORF18 (mKGN-ORF18) WT P14A | 99.9% |  | 
26 | N-terminally mKGN-tagged ORF18 (mKGN-ORF18) WT P14A; G15A; L19A |  | 14.1% | 
27 | N-terminally mKGN-tagged ORF18 (mKGN-ORF18) WT P156A | 99.8% |  | 
28 | N-terminally mKGN-tagged ORF18 (mKGN-ORF18) WT P156A; R158A; L159A |  |  | response ([2]; ASC10mut protein expression was not confirmed by Western blotting, parent: 99.8): 14.4%
29 | N-terminally mKGN-tagged ORF18 (mKGN-ORF18) WT R158A | 87.3% |  | 
30 | N-terminally mKGN-tagged ORF18 (mKGN-ORF18) WT W170A | 25.6% |  | 
31 | p65-mKGN (pCONT-1) (from UniProt Q04206 1-551) (natural protein) |  |  | mKG-positive cells (%) (p50-mKGC (pCONT-2)): > 90%
